Source: patent publication US20240327517A1 (SUZHOU SMARTNUCLIDE BIOPHARMACEUTICAL, published 2024)

B1: C37-ST-YS (VHH)
VHH: QLQLVESGGGLVQAGGSLRLSCAASGLTFEDYAIGWFRQAPGKEREGISCIRIYDGNTYYAESVKGRFTISSDNAKNQVYLQINSLKPEDTAVYYCAAGSYYSCSVYPDYDMDYWGKGTLVTVSS
notes: Mutant of section 1.1 (Protein A test); No tag is mentioned for this section
B2: C37-YDS (VHH)
VHH: QLQLVESGGGLVQAGGSLRLSCAASGLTFEDYAIGWFRQAPGKEREGISCIRIYDGNTYYADSVKGRFTISSDNAKNQVYLQINSLKPEDTAVYYCAAGSYYSCSVYPDYDMDYWGKGTLVTVSS
notes: as for B1
B3: C37-YDMS (VHH)
VHH: QLQLVESGGGLVQAGGSLRLSCAASGLTFEDYAIGWFRQAPGKEREGISCIRIYDGNTYYADSVKGRFTISSDNAKNQVYLQMNSLKPEDTAVYYCAAGSYYSCSVYPDYDMDYWGKGTLVTVSS
notes: as for B1
B4: C37-YMS (VHH)
VHH: QLQLVESGGGLVQAGGSLRLSCAASGLTFEDYAIGWFRQAPGKEREGISCIRIYDGNTYYAESVKGRFTISSDNAKNQVYLQMNSLKPEDTAVYYCAAGSYYSCSVYPDYDMDYWGKGTLVTVSS
notes: as for B1
B5: C37-S60Y (VHH)
VHH: QLQLVESGGGLVQAGGSLRLSCAASGLTFEDYAIGWFRQAPGKEREGISCIRIYDGNTYYAESVKGRFTISSDNAKNQVYLQINTLKPEDTAVYYCAAGSYYSCSVYPDYDMDYWGKGTLVTVSS
notes: as for B1
B6: C37 single-domain antibody (untagged) (VHH)
VHH: QLQLVESGGGLVQAGGSLRLSCAASGLTFEDYAIGWFRQAPGKEREGISCIRIYDGNTYSAESVKGRFTISSDNAKNQVYLQINTLKPEDTAVYYCAAGSYYSCSVYPDYDMDYWGKGTLVTVSS
notes: The untagged construct was expressed in HEK293 and used in the Protein A test; also called C37 antibody
B7: C37-S72R (histidine-tagged) (VHH)
VHH: QLQLVESGGGLVQAGGSLRLSCAASGLTFEDYAIGWFRQAPGKEREGISCIRIYDGNTYSAESVKGRFTISRDNAKNQVYLQINTLKPEDTAVYYCAAGSYYSCSVYPDYDMDYWGKGTLVTVSS
notes: not shown: histidine tag
B8: C37-KL-QQ (histidine-tagged) (VHH)
VHH: QLQLVESGGGLVQAGGSLRLSCAASGLTFEDYAIGWFRQAPGKEREGISCIRIYDGNTYSAESVKGRFTISSDNAKNQVYLQINTLKPEDTAVYYCAAGSYYSCSVYPDYDMDYWGQGTQVTVSS
notes: not shown: histidine tag
B9: C37-T85S (histidine-tagged, section 1.2) (VHH)
VHH: QLQLVESGGGLVQAGGSLRLSCAASGLTFEDYAIGWFRQAPGKEREGISCIRIYDGNTYSAESVKGRFTISSDNAKNQVYLQINSLKPEDTAVYYCAAGSYYSCSVYPDYDMDYWGKGTLVTVSS
notes: not shown: histidine tag
B10: C37-SRA (histidine-tagged) (VHH)
VHH: QLQLVESGGGLVQAGGSLRLSCAASGLTFSDYAIGWFRQAPGKEREGISCIRIYDGNTYSAESVKGRFTISRDNAKNQVYLQINTLKPEDTAVYYCAAGSYYSCSVYPAYDMDYWGKGTLVTVSS
notes: not shown: histidine tag
B11: C37-D109A (histidine-tagged) (VHH)
VHH: QLQLVESGGGLVQAGGSLRLSCAASGLTFEDYAIGWFRQAPGKEREGISCIRIYDGNTYSAESVKGRFTISSDNAKNQVYLQINTLKPEDTAVYYCAAGSYYSCSVYPAYDMDYWGKGTLVTVSS
notes: not shown: histidine tag
B12: C37-E30S (histidine-tagged) (VHH)
VHH: QLQLVESGGGLVQAGGSLRLSCAASGLTFSDYAIGWFRQAPGKEREGISCIRIYDGNTYSAESVKGRFTISSDNAKNQVYLQINTLKPEDTAVYYCAAGSYYSCSVYPDYDMDYWGKGTLVTVSS
notes: not shown: histidine tag
B13: C37-SRS (histidine-tagged) (VHH)
VHH: QLQLVESGGGLVQAGGSLRLSCAASGLTFSDYAIGWFRQAPGKEREGISCIRIYDGNTYSAESVKGRFTISRDNAKNQVYLQINSLKPEDTAVYYCAAGSYYSCSVYPDYDMDYWGKGTLVTVSS
notes: not shown: histidine tag
B14: C37-D111A (histidine-tagged) (VHH)
VHH: QLQLVESGGGLVQAGGSLRLSCAASGLTFEDYAIGWFRQAPGKEREGISCIRIYDGNTYSAESVKGRFTISSDNAKNQVYLQINTLKPEDTAVYYCAAGSYYSCSVYPDYAMDYWGKGTLVTVSS
notes: not shown: histidine tag
B15: C37-TMS (histidine-tagged) (VHH)
VHH: QLQLVESGGGLVQAGGSLRLSCAASGLTFEDYAIGWFRQAPGKEREGISCIRIYDGNTYSAESVKGRFTISSDNAKNTVYLQMNSLKPEDTAVYYCAAGSYYSCSVYPDYDMDYWGKGTLVTVSS
notes: not shown: histidine tag
B16: C37-SR (histidine-tagged) (VHH)
VHH: QLQLVESGGGLVQAGGSLRLSCAASGLTFSDYAIGWFRQAPGKEREGISCIRIYDGNTYSAESVKGRFTISRDNAKNQVYLQINTLKPEDTAVYYCAAGSYYSCSVYPDYDMDYWGKGTLVTVSS
notes: not shown: histidine tag
B17: C37-SA (histidine-tagged) (VHH)
VHH: QLQLVESGGGLVQAGGSLRLSCAASGLTFEDYAIGWFRQAPGKEREGISCIRIYDGNTYSAESVKGRFTISSDNAKNQVYLQINSLKPEDTAVYYCAAGSYYSCSVYPAYDMDYWGKGTLVTVSS
notes: not shown: histidine tag
B18: C37-RSA (histidine-tagged) (VHH)
VHH: QLQLVESGGGLVQAGGSLRLSCAASGLTFEDYAIGWFRQAPGKEREGISCIRIYDGNTYSAESVKGRFTISRDNAKNQVYLQINSLKPEDTAVYYCAAGSYYSCSVYPAYDMDYWGKGTLVTVSS
notes: not shown: histidine tag
B19: C37-RA (histidine-tagged) (VHH)
VHH: QLQLVESGGGLVQAGGSLRLSCAASGLTFEDYAIGWFRQAPGKEREGISCIRIYDGNTYSAESVKGRFTISRDNAKNQVYLQINTLKPEDTAVYYCAAGSYYSCSVYPAYDMDYWGKGTLVTVSS
notes: not shown: histidine tag
B20: C37-M112L (histidine-tagged) (VHH)
VHH: QLQLVESGGGLVQAGGSLRLSCAASGLTFEDYAIGWFRQAPGKEREGISCIRIYDGNTYSAESVKGRFTISSDNAKNQVYLQINTLKPEDTAVYYCAAGSYYSCSVYPDYDLDYWGKGTLVTVSS
notes: not shown: histidine tag
B21: C37-D31Y (histidine-tagged) (VHH)
VHH: QLQLVESGGGLVQAGGSLRLSCAASGLTFEYYAIGWFRQAPGKEREGISCIRIYDGNTYSAESVKGRFTISSDNAKNQVYLQINTLKPEDTAVYYCAAGSYYSCSVYPDYDMDYWGKGTLVTVSS
notes: not shown: histidine tag
B22: C37-H4 (humanized variant of C37-F1) (VHH)
VHH: QVQLVESGGGLVQPGGSLRLSCAASGLTFSDYAIGWFRQAPGKEREGISCIRIYDGNTYYADSVKGRFTISRDNSKNHVYLQMNSLKPEDTAVYYCAAGSYYSCSVYPAYDLDYWGKGTLVTVSS
B23: C37-H3 (humanized variant of C37-F1) (VHH)
VHH: QVQLVESGGGLVQPGGSLRLSCAASGLTFSDYAIGWFRQAPGKEREGISCIRIYDGNTYYADSVKGRFTISRDNAKNHVYLQMNSLRAEDTAVYYCAAGSYYSCSVYPAYDLDYWGKGTLVTVSS
B24: C37H (humanized variant of C37-F1) (VHH)
VHH: QVQLVESGGGLVQPGGSLRLSCAASGLTFSDYAIGWFRQAPGKEREGISCIRIYDGNTYYADSVKGRFTISRDNSKNHVYLQMNSLRAEDTAVYYCAAGSYYSCSVYPAYDLDYWGKGTLVTVSS
B25: C37-H1 (humanized variant of C37-F1) (VHH)
VHH: QVQLVESGGGLVQPGGSLRLSCAASGLTFSDYAIGWFRQAPGKEREGISCIRIYDGRTYYADSVKGRFTISRDNSKNHVYLQMNSLRAEDTAVYYCAAGSYYSCSVYPAYDLDYWGQGTLVTVSS
B26: C37-H2 (humanized variant of C37-F1) (VHH)
VHH: QVQLVESGGGLVQPGGSLRLSCAASGLTFSDYAIGWFRQAPGKEREGISCIRIYDRNTYYADSVKGRFTISRDNSKNHVYLQMNSLRAEDTAVYYCAAGSYYSCSVYPAYDLDYWGQGTLVTVSS

biological target: T1, PROTEIN A (packing of the PROTEIN A affinity chromatography) (UniProt P38507 37-327, limits assumed); assay: binding to the Protein A affinity packing

Row | Binder | binding result
1 | B1 | no binding
2 | B2 | no binding
3 | B3 | no binding
4 | B4 | no binding
5 | B5 | no binding

biological target: T1, PROTEIN A (packing of the PROTEIN A …); assay: Protein A affinity chromatography of HEK293-expressed protein, SDS-PAGE of fractions
From the text: After preliminary screening and identification, C37-cHis was selected as a final antibody sequence (including a histidine tag) from candidate antibodies, and meanwhile, an untagged recombinant plasmid C37 was constructed. HEK293 cells were transfected with the single-domain antibody C37 fusion protein plasmid constructed by the above recombination for expression of an antibody. […] Therefore, it was necessary to optimize the sequence of the C37 antibody to allow purification of the C37 antibody by affinity chromatography.
The recombinant plasmid C37 and the mutated recombinant plasmid C37-YDHMS were subjected to antibody expression via the HEK293 cells, respectively, and purification was conducted by means of the packing of the PROTEIN A affinity chromatography, in order to verify the binding to the affinity packing after the mutations.

Row | Binder | binding result
6 | B6 | no binding

biological target: T2, CD8α Fc fusion protein (UniProt P01732 22-182, limits assumed); assay: ELISA, plate coated with CD8α Fc fusion protein, anti-His-HRP detection, 4-parameter fit; relative to C37
T2 construct: Used as the coating antigen of the ELISAs; also called CD8α antigen; CD8α protein; not shown: Fc part
From the text: The expression level and binding activity of each mutant were separately detected. For the sake of detection, a histidine-tagged recombinant plasmid was used in this section for transient transfection, after which a recombinant protein was purified by affinity chromatography with a corresponding Ni+ resin gel, thereby obtaining a protein of interest for direct use in the detection of expression level and binding activity.
(§1) After washing, an anti-His horseradish peroxidase-labeled antibody was added to allow reaction for 1 hour at room temperature. After washing, a chromogenic solution was added, and an absorption value was read at a wavelength of 450 nm. The software SotfMaxPro v5.4 was used for data processing and diagraph analysis; four-parameter fitting was performed to obtain the binding curve of the mutated antibody to CD8α; and different mutants were compared in relative activity with the C37 antibody as a control, in order to reflect the affinity of the antibody to CD8α.

T2 sequence (P01732 22-182 limits assumed): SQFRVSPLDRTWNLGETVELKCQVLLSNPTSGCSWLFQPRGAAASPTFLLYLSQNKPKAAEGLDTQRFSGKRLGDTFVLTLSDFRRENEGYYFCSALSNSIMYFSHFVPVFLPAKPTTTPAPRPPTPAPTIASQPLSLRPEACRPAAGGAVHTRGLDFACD

Row | Binder | Relative activity (%)
7 | B7 | 115
8 | B8 | 141
9 | B9 | 162
10 | B10 | 40
11 | B11 | 476
12 | B12 | 126
13 | B13 | 33
14 | B14 | 84.6
15 | B15 | 107
16 | B16 | 42
17 | B17 | 257
18 | B18 | 103
19 | B19 | 108
20 | B20 | 206
21 | B21 | 48.4

biological target: T2, CD8α Fc fusion protein; assay: affinity detection of humanized variants (method not restated; taken as the CD8α Fc ELISA of section 1.2); relative to C37-F1
Method: as §1

Row | Binder | Relative activity (%)
22 | B22 | 141
23 | B23 | 171
24 | B24 | 151
25 | B25 | 110
26 | B26 | 122
